Source: PMC7376604 (Cell reports, 2020)

Experiments:
[1] = target: human GLP-1 receptor (GLP-1R) (human) (UniProt P43220)
shrews (Suncus murinus) = test: Food intake and body weight; assay type: in vivo; conditions: shrew, albiglutide 0.5 and 5 mg/kg i.p.

Chain of UniProt P43220 (P43220 24-463): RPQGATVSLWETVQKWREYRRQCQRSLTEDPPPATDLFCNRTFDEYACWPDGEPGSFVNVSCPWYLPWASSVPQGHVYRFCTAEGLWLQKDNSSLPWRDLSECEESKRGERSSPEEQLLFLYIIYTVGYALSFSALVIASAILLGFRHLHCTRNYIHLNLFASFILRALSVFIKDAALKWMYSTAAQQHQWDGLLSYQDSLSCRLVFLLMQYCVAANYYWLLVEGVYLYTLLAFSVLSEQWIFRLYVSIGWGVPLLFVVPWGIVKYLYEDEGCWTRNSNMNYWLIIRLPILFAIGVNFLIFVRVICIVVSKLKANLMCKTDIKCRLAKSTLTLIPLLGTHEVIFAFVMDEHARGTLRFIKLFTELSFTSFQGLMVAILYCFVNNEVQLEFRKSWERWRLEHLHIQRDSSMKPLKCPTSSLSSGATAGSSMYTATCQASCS

| Substance | EC50 of agonism at the GLP-1R [1] [nM] | anorexia and body-weight loss (shrews (Suncus murinus)) |
| --- | --- | --- |
| HC-Cbi-Ex4 (complex) | 3 |  |
| albiglutide |  | did not cause anorexia and body-weight loss |
